From paper PMC3024538

Molecular target: HLA A*0201 α chain with β2m, recombinant, biotinylated
Assay: SPR

In the case of Melan-A/MART-1 26-35 peptide […], the half-life of the pMHCI complex is reported as 6 h.
